Patent US20240360229A1 (Genentech, published 2024)

Key:
[1] = target: T1, Human CD3-epsilon/delta dimer (linked by murine Fc) (human; mouse, UniProt P07766 23-126; P04234 22-105); assay: SPR (Biacore T200, 37 C), TDB captured by anti-human Fc on CM5, huCD3ed-mIgG2a.Fc injected; 1:1 Langmuir, n=3
T1 construct: also called huCD3ed-mIgG2a.Fc; recombinant human CD3epsilon/delta; not shown: mouse IgG2a Fc

cyno CCR8 [2] = target: T2, cyno CCR8 (cynomolgus monkey, UniProt O97665 1-356 (rhesus entry)); assay: LigandTracer real-time fluorescence, Alexa Fluor 488-labelled TDB on CHO cells expressing cyno CCR8; 1-to-2 fit, bivalent event
T2 construct: also called cynomolgus CCR8; cyCCR8
Procedure: (§1) The following day, media was aspirated and fresh media was added. The cells were incubated at room temperature for 20 minutes prior to starting the assay. The plate was loaded onto a LIGAND TRACER® Green instrument (Ridgeview Instruments AB) for real-time fluorescence measurement. […] Antibody (Ab) dissociation was recorded by aspirating the media and adding fresh media with 10 nM of unlabeled Ab to prevent rebinding of labeled Ab. The Ab dissociation was measured overnight to obtain accurate off-rates. Untransfected CHO cells were used to subtract the non-specific binding. Specific binding traces were analyzed using TraceDrawer 1.7 (Ridgeview Instruments) software and fit with a 1-to-2 with bulk binding model to determine association (kₐ) and dissociation (kd) rate constants. The equilibrium dissociation constants (KD) for each binding event were calculated as the ratio of the dissociation and association rates, kd/kₐ.
(§2) 1 million CHO cells stably expressing either human or cynomolgus CCR8 (about 60,000 and about 30,000 receptors/cell, respectively) were seeded at a concentration of 1 million cells/mL onto a Multidish 2×2 Petri Dish (Ridgeview Instruments AB, Sweden) to form a circular drop of about 3 cm diameter in chambers A and C of the dish. […] The plate was loaded onto a […]® Green (Ridgeview Instruments AB) for real-time fluorescence measurement.

human CCR8 [3] = target: T3, human CCR8 (human, UniProt P51685 1-355); assay: LigandTracer real-time fluorescence, Alexa Fluor 488-labelled TDB on CHO cells expressing human CCR8; 1-to-2 fit, bivalent event
T3 construct: also CHO-hCCR8-Ga15 / CHO/hCCR8.Gna15); also called hCCR8; huCCR8
Procedure: as §1, §2

cyno CCR8 [4] = target: T2, cyno CCR8; assay: LigandTracer real-time fluorescence, Alexa Fluor 488-labelled TDB on CHO cells expressing cyno CCR8; 1-to-2 fit, monovalent event
Procedure: as §1, §2

human CCR8 [5] = target: T3, human CCR8; assay: LigandTracer real-time fluorescence, Alexa Fluor 488-labelled TDB on CHO cells expressing human CCR8; 1-to-2 fit, monovalent event
Procedure: as §1, §2

cyno CCR8 [6] = target: T2, cyno CCR8; assay: cellular binding with LigandTracer on CHO cells expressing cyno CCR8, three experiments (same values as the bivalent row of Table 8)
Procedure: (§3) Untransfected CHO cells were used to subtract the non-specific binding. Specific binding traces were analyzed using TraceDrawer 1.7 (Ridgeview Instruments) software and fit with a 1-to-2 with bulk binding model to determine association (kₐ) and dissociation (kd) rate constants. The equilibrium dissociation constants (KD) for each binding event were calculated as the ratio of the dissociation and association rates, kd/kₐ.
(§4) 1 million CHO cells stably expressing either human or cynomolgus CCR8 (about 60,000 and about 30,000 receptors/cell, respectively) were seeded at a concentration of 1 million cells/mL onto a Multidish 2×2 Petri Dish (Ridgeview Instruments AB, Sweden) to form a circular drop of about 3 cm diameter in chambers A and C of the dish. Untransfected CHO cells were seeded in opposing chambers (B and D) in the same manner. Cells were left undisturbed to adhere for 4 hours. […] The plate was loaded onto a […]® Green (Ridgeview Instruments AB) for real-time fluorescence measurement. […] The Ab dissociation was measured overnight to obtain accurate off-rates. […] Specific binding traces were analyzed using TraceDrawer 1.7 (Ridgeview Instruments) software to determine the association-(kₐ) and dissociation-(kd) rate constants. The equilibrium dissociation constants (KD) for each binding event were calculated as the ratio of the dissociation and association rates, kd/kₐ. […]

human CCR8 [7] = target: T3, human CCR8; assay: cellular binding with LigandTracer on CHO cells expressing human CCR8, three experiments (same values as the bivalent row of Table 8)
Procedure: as §3, §4

cyno CCR8 [8] = target: T2, cyno CCR8; assay: flow cytometry titration on CHO cells stably expressing cyno CCR8 (14 h, room temperature)
Procedure: (§5) In particular, human CCR8 CHO and cyno (cynomolgus monkey) CCR8 CHO stable cell lines were stained with a dilution series of anti-CCR8 antibodies at room temperature for 14 hours, then washed twice with FACS buffer (PBS with 0.5% BSA and 0.2 mM EDTA). Samples were washed twice with FACS buffer followed by staining with goat Fab anti-hu IgG H+L (1:300, Jackson Immuno) at 4° C. for 15 minutes.

human CCR8 [9] = target: T3, human CCR8; assay: flow cytometry titration on CHO cells stably expressing human CCR8 (14 h, room temperature)
Procedure: as §5

T2 sequence (O97665 other isoform, or with tags, fused parts or gaps): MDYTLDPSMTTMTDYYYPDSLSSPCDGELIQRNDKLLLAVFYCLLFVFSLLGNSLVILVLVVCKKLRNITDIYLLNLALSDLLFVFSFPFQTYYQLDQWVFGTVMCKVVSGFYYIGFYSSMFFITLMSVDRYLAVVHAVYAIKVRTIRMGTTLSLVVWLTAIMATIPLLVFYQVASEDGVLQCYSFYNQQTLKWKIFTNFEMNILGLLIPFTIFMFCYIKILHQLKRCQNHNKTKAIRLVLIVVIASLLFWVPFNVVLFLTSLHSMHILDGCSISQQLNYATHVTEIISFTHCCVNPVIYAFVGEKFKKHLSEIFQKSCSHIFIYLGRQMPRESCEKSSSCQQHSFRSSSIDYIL
T3 sequence (P51685 whole entry): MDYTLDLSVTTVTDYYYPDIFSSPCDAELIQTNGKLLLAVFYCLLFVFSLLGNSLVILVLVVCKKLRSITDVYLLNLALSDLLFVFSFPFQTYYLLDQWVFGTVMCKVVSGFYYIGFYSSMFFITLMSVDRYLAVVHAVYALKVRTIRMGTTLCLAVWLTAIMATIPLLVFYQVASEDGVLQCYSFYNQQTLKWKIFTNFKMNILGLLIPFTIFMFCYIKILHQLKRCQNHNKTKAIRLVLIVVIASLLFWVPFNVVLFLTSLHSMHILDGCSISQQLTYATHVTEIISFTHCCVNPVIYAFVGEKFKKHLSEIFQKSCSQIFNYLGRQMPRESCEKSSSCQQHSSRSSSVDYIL
T1 sequence (P07766 23-126, stated change not applied, chain 1 of 2): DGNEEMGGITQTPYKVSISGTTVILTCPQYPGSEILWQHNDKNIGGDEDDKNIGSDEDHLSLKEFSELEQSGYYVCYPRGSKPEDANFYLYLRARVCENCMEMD
T1 sequence (P04234 22-105, stated change not applied, chain 2 of 2): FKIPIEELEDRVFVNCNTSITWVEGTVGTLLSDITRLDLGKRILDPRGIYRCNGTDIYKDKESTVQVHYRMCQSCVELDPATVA

Row | Binder | EC50 (cyno CCR8 [8]) [nM] | EC50 (human CCR8 [9]) [nM] | also measured
1 | 1889/1889:40G5c anti-CCR8 TDB 2+1 A/AB (A: 1889 P, B: 40G5c) (bispecific antibody, human IgG1, kappa, L234A L235A, 2+1 T cell-dependent bispecific: human IgG1 Fc with LALA-PG, knob-into-hole and charge mutations) heavy 1: EVQLLESGGGLVQPGGSLRLSCAASGIDLSTYAMGWVREAPGKGLEWVGLIHRSGRTYYATWAKGRFTISKDSSKNTLYLQMNSLRAEDTAVYYCTRSYPDYSATASIWGQGTTVTVSSASTKGPSVFPLAPSSKSTSGGTAALGCLVKDYFPEPVTVSWNSGALTSGVHTFPAVLQSSGLYSLKSVVTVPSSSLGTQTYICNVNHKPSNTKVDKKVEPKSCDKTHTCPPCPAPEAAGGPSVFLFPPKPKDTLMISRTPEVTCVVVDVSHEDPEVKFNWYVDGVEVHNAKTKPREEQYNSTYRVVSVLTVLHQDWLNGKEYKCKVSNKALGAPIEKTISKAKGQPREPQVYTLPPSREEMTKNQVSLWCLVKGFYPSDIAVEWESNGQPENNYKTTPPVLDSDGSFFLYSKLTVDKSRWQQGNVFSCSVMHEALHNHYTQKSLSLSPGK light 1: DIQVTQSPSSLPASVGDRVTITCQASENIANALAWYQKKPGKPPKFLIYGASNLASGVPSRFSGSGSGTDFTFTISSLQPEDIATYYCQQAYYGNSFVEGTFGGGTKVEIKRTVAAPSVFIFPPSDEQLKSGTASVECLLNNFYPREAKVQWKVDNALQSGNSQESVTEQDSKDSTYSLSSTLTLSKADYEKHKVYACEVTHQGLSSPVTKSFNRGEC heavy 2: EVQLLESGGGLVQPGGSLRLSCAASGIDLSTYAMGWVREAPGKGLEWVGLIHRSGRTYYATWAKGRFTISKDSSKNTLYLQMNSLRAEDTAVYYCTRSYPDYSATASIWGQGTTVTVSSASTKGPSVFPLAPSSKSTSGGTAALGCLVKDYFPEPVTVSWNSGALTSGVHTFPAVLQSSGLYSLKSVVTVPSSSLGTQTYICNVNHKPSNTKVDKKVEPKSCDKTHTEVQLVQSGAEVKKPGASVKVSCKASGYTFTNYYIHWVRKAPGQGLEWIGWIYPGDGNTKYNEKFKGRATLTADTSTSTAYLELSSLRSEDTAVYYCARDSYSNYYFDYWGQGTLVTVSSASTKGPSVFPLAPSSKSTSGGTAALGCLVKDYFPEPVTVSWNSGALTSGVHTFPAVLQSSGLYSLESVVTVPSSSLGTQTYICNVNHKPSNTKVDKKVEPKSCDKTHTCPPCPAPEAAGGPSVFLFPPKPKDTLMISRTPEVTCVVVDVSHEDPEVKFNWYVDGVEVHNAKTKPREEQYNSTYRVVSVLTVLHQDWLNGKEYKCKVSNKALGAPIEKTISKAKGQPREPQVYTLPPSREEMTKNQVSLSCAVKGFYPSDIAVEWESNGQPENNYKTTPPVLDSDGSFFLVSKLTVDKSRWQQGNVFSCSVMHEALHNHYTQKSLSLSPGK light 2: not shown | – | – | Kd [1]: 1160 nM; Kd (cyno CCR8 [2]): 0.0228 nM; Kd (human CCR8 [3]): 0.00778 nM; Kd (cyno CCR8 [4]): 1.01 nM; Kd (human CCR8 [5]): 0.484 nM; Kd (cyno CCR8 [6]): 0.023 nM; Kd (human CCR8 [7]): 0.008 nM
2 | anti-CCR8 1889 WT antibody (parent) (antibody, V domains shown, The antibody has human IgG constant regions (detected with anti-human IgG)) VH: EVQLLESGGGLVQPGGSLRLSCAASGIDLSTYAMGWVREAPGKGLEWVGLIHRSGRTYYATWAKGRFTISKDSSKNTLYLQMNSLRAEDTAVYYCTRSYPDYSATASIWGQGTTVTVSS VL: DIQVTQSPSSLSASVGDRVTITCQASENIANALAWYQKKPGKPPKFLIYGASNLASGVPSRFSGSGSGTDFTFTISSLQPEDIATYYCQQAYYGNSFVEGTFGGGTKVEIK | 11.5 | 17.1 | –
3 | anti-CCR8 1889 S12P.I29V (PV) (antibody, V domains shown) VH: EVQLLESGGGLVQPGGSLRLSCAASGIDLSTYAMGWVREAPGKGLEWVGLIHRSGRTYYATWAKGRFTISKDSSKNTLYLQMNSLRAEDTAVYYCTRSYPDYSATASIWGQGTTVTVSS VL: DIQVTQSPSSLPASVGDRVTITCQASENVANALAWYQKKPGKPPKFLIYGASNLASGVPSRFSGSGSGTDFTFTISSLQPEDIATYYCQQAYYGNSFVEGTFGGGTKVEIK | 7.67 | 1.65 | –
4 | anti-CCR8 1889 S12P.I29V.Y58A (PVA) (antibody, V domains shown, It is put together from the printed names of the heavy chain variant (Y58A) and the light chain variant (S12P.I29V)) VH: EVQLLESGGGLVQPGGSLRLSCAASGIDLSTYAMGWVREAPGKGLEWVGLIHRSGRTAYATWAKGRFTISKDSSKNTLYLQMNSLRAEDTAVYYCTRSYPDYSATASIWGQGTTVTVSS VL: DIQVTQSPSSLPASVGDRVTITCQASENVANALAWYQKKPGKPPKFLIYGASNLASGVPSRFSGSGSGTDFTFTISSLQPEDIATYYCQQAYYGNSFVEGTFGGGTKVEIK | 6.14 | 1.03 | –

Further binders by falling EC50 (cyno CCR8 [8]), results first:

Row | EC50 (cyno CCR8 [8]) [nM] | EC50 (human CCR8 [9]) [nM] | Binder | also measured
5 | 3.39 | 1.19 | anti-CCR8 1889 S12P.I29V.E95dS.Y58A (PVSA) (antibody, V domains shown, It is put together from the printed names of the heavy and light chain variants) VH: EVQLLESGGGLVQPGGSLRLSCAASGIDLSTYAMGWVREAPGKGLEWVGLIHRSGRTAYATWAKGRFTISKDSSKNTLYLQMNSLRAEDTAVYYCTRSYPDYSATASIWGQGTTVTVSS VL: DIQVTQSPSSLPASVGDRVTITCQASENVANALAWYQKKPGKPPKFLIYGASNLASGVPSRFSGSGSGTDFTFTISSLQPEDIATYYCQQAYYGNSFVSGTFGGGTKVEIK | –
6 | 3.13 | 0.66 | anti-CCR8 1889 S12P.I29V.E95dS (PVS) (antibody, V domains shown) VH: EVQLLESGGGLVQPGGSLRLSCAASGIDLSTYAMGWVREAPGKGLEWVGLIHRSGRTYYATWAKGRFTISKDSSKNTLYLQMNSLRAEDTAVYYCTRSYPDYSATASIWGQGTTVTVSS VL: DIQVTQSPSSLPASVGDRVTITCQASENVANALAWYQKKPGKPPKFLIYGASNLASGVPSRFSGSGSGTDFTFTISSLQPEDIATYYCQQAYYGNSFVSGTFGGGTKVEIK | –
7 | 2.24 | 0.94 | anti-CCR8 1889 S12P.I29V.E95dS.T57D.Y58A (PVSDA) (antibody, V domains shown, It is put together from the printed names of the heavy and light chain variants; also called I29V.E95dS.Y57D.Y58A) VH: EVQLLESGGGLVQPGGSLRLSCAASGIDLSTYAMGWVREAPGKGLEWVGLIHRSGRDAYATWAKGRFTISKDSSKNTLYLQMNSLRAEDTAVYYCTRSYPDYSATASIWGQGTTVTVSS VL: DIQVTQSPSSLPASVGDRVTITCQASENVANALAWYQKKPGKPPKFLIYGASNLASGVPSRFSGSGSGTDFTFTISSLQPEDIATYYCQQAYYGNSFVSGTFGGGTKVEIK | –
